# From IntAct's records for PubMed 16630557
# B1: mRNA-decapping enzyme subunit 1 (Saccharomyces cerevisiae), Q12517 (parent)
# chain: MTGAATAAENSATQLEFYRKALNFNVIGRYDPKIKQLLFHTPHASLYKWDFKKDEWNKLEYQGVLAIYLRDVSQNTNLLPVSPQEVDIFDSQNGSNNIQVNNGSDNSNRNSSGNGNSYKSNDSLTYNCGKTLSGKDIYNYGLIILNRINPDNFSMGIVPNSVVNKRKVFNAEEDTLNPLECMGVEVKDELVIIKNLKHEVYGIWIHTVSDRQNIYELIKYLLENEPKDSFA
# Variants of: B1
# Details: with erf3_yeast SUP35, P05453
# Chain of erf3_yeast SUP35, P05453 (P05453 whole entry): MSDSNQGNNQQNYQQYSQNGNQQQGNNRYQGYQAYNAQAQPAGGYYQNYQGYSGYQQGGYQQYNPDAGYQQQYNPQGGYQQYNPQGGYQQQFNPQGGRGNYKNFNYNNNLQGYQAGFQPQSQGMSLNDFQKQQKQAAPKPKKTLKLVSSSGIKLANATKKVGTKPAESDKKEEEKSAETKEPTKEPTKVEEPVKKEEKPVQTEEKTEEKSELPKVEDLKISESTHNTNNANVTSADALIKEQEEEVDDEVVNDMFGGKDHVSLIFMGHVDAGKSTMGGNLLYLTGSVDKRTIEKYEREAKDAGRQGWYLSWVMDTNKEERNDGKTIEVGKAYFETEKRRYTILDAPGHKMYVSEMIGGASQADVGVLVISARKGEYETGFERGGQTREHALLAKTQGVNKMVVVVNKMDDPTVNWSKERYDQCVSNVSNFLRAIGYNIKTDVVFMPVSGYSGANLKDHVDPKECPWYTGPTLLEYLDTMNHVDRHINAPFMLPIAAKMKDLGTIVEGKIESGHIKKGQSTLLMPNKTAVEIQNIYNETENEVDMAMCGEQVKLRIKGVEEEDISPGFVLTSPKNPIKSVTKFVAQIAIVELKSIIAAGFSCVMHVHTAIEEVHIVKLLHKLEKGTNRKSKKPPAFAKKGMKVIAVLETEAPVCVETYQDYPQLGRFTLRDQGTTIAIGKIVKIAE
row,effect of a mutation on the interaction,Variant
1,decreasing interaction,S45P
2,decreasing interaction,L38P;S45P
